The values below come from patent US10745460B2, “Peptides and combination of peptides for use in immunotherapy against various tumors” (Immatics Biotechnologies GmbH, priority 2015, dated 2020).

For this assay, the target named is HLA-A*02:01 (Homo sapiens, UniProt P04439, D140Y/D185E/D98H/E176V/E277Q/G131W/G231S/I119V/I121R/I166T/I218V/L300P/L318F/N151K/N90K/P208A/P217A/Q86G/Q94H/R138H/R169H/T345S). Kind of assay: MHC binding assay: UV-ligand exchange with β2m ELISA (peptide exchange yield). The conditions noted are these: binding to HLA-A*02:01 evaluated by peptide exchange yield (UV-ligand exchange, β2m ELISA). The text has this:
Candidate peptides for T cell based therapies according to the present invention were further tested for their MHC binding capacity (affinity). The individual peptide-MHC complexes were produced by UV-ligand exchange, where a UV-sensitive peptide is cleaved upon UV-irradiation, and exchanged with the peptide of interest as analyzed. Only peptide candidates that can effectively bind and stabilize the peptide-receptive MHC molecules prevent dissociation of the MHC complexes. To determine the yield of the exchange reaction, an ELISA was performed based on the detection of the light chain (β2m) of stabilized MHC complexes. The assay was performed as generally described in Rodenko et al. (Rodenko et al., 2006).
96 well MAXISorp plates (NUNC) were coated over night with 2 ug/ml streptavidin in PBS at room temperature, washed 4× and blocked for 1 h at 37° C. in 2% BSA containing blocking buffer. Refolded HLA-A*02:01/MLA-001 monomers served as standards, covering the range of 15-500 ng/ml. Peptide-MHC monomers of the UV-exchange reaction were diluted 100 fold in blocking buffer. Samples were incubated for 1 h at 37° C., washed four times, incubated with 2 ug/ml HRP conjugated anti-β2m for 1 h at 37° C., washed again and detected with TMB solution that is stopped with […]. Absorption was measured at 450 nm. Candidate peptides that show a high exchange yield (preferably higher than 50%, most preferred higher than 75%) are generally preferred for a generation and production of antibodies or fragments thereof, and/or T cell receptors or fragments thereof, as they show sufficient avidity to the MHC molecules and prevent dissociation of the MHC complexes.

As to “230 (KLLNMIFSI; listed as Homo sapiens) [compound 230]”, the Peptide exchange result is “+++ (≥50 = +++)”. On to “198 (ILTNKVVSV; listed as Homo sapiens) [compound 198]”, for which the Peptide exchange result was “++ (≥20% = ++)”. As for “72 (VLSTRVTNV; listed as Homo sapiens) [compound 72]”, the entry is “++ (≥20% = ++)”; as for “110 (QIQGQVSEV; listed as Homo sapiens) [compound 110]”, “++ (≥20% = ++)”; as for “11 (LLDPKTIFL; listed as Homo sapiens) [compound 11]”, “+++ (≥50 = +++)”.

As for “223 (ALHPVQFYL; listed as Homo sapiens) [compound 223]”, the Peptide exchange result is recorded as “+++ (≥50 = +++)”. Take “103 (YLADTVQKL; listed as Homo sapiens) [compound 103]”: the Peptide exchange entry was “++ (≥20% = ++)”.

With “179 (TLGEIIKGV; listed as Homo sapiens) [compound 179]”, the Peptide exchange entry is listed as “+++ (≥50 = +++)”. As to “260 (ALNESLVEC; listed as Homo sapiens) [compound 260]”, the Peptide exchange result is given as “+++ (≥50 = +++)”. Consider “190 (SLSTELFKV; listed as Homo sapiens) [compound 190]”, for which the Peptide exchange entry was “+++ (≥50 = +++)”. Take “145 (ALEEKLENV; listed as Homo sapiens) [compound 145]”: the Peptide exchange result is “+++ (≥50 = +++)”. On to “221 (IMLNSVEEI; listed as Homo sapiens) [compound 221]”, for which the Peptide exchange entry is reported as “++ (≥20% = ++)”. For the substance “141 (NIDINNNEL; listed as Homo sapiens) [compound 141]”, the Peptide exchange entry is recorded as “++ (≥20% = ++)”.

Regarding “54 (YLVPGLVAA; listed as Homo sapiens) [compound 54]”, the Peptide exchange entry is “+++ (≥50 = +++)”.

On to “275 (AVPPPPSSV; listed as Homo sapiens) [compound 275]”, for which the Peptide exchange entry is given as “++ (≥20% = ++)”. As for “96 (ALDTTRHEL; listed as Homo sapiens) [compound 96]”, the entry is “++ (≥20% = ++)”; as for “274 (TLYNPERTITV; listed as Homo sapiens) [compound 274]”, “+++ (≥50 = +++)”. “151 (DISKRIQSL; listed as Homo sapiens) [compound 151]”: the Peptide exchange result is reported as “++ (≥20% = ++)”. As for “242 (KLQEEIPVL; listed as Homo sapiens) [compound 242]”, the entry is “+++ (≥50 = +++)”.

Consider “231 (LLDDIFIRL; listed as Homo sapiens) [compound 231]”, for which the Peptide exchange result was “+++ (≥50 = +++)”.

Turning to “248 (VLMQDSRLYL; listed as Homo sapiens) [compound 248]”, the Peptide exchange result is recorded as “+++ (≥50 = +++)”.

On to “124 (ALLLRLFTI; listed as Homo sapiens) [compound 124]”, for which the Peptide exchange result is recorded as “++ (≥20% = ++)”. Consider “267 (YLLDMPLWYL; listed as Homo sapiens) [compound 267]”, for which the Peptide exchange result is “+++ (≥50 = +++)”. For “102 (GLYPVTLVGV; listed as Homo sapiens) [compound 102]” the value was “+++ (≥50 = +++)”; for “193 (ALFHMNILL; listed as Homo sapiens) [compound 193]”, “+++ (≥50 = +++)”; for “68 (QLMNLIRSV; listed as Homo sapiens) [compound 68]”, “+++ (≥50 = +++)”.

Turning to “165 (SLLDYEVSI; listed as Homo sapiens) [compound 165]”, the Peptide exchange result is “+++ (≥50 = +++)”. For the substance “191 (AAIEIFEKV; listed as Homo sapiens) [compound 191]”, the Peptide exchange entry is “+++ (≥50 = +++)”. In the case of “113 (FLFLKEVKV; listed as Homo sapiens) [compound 113]”, the Peptide exchange entry is recorded as “++ (≥20% = ++)”. For “116 (ALLSSVAEA; listed as Homo sapiens) [compound 116]” the value was “++ (≥20% = ++)”. On to “142 (LLDAAHASI; listed as Homo sapiens) [compound 142]”, for which the Peptide exchange entry is listed as “++ (≥20% = ++)”. “167 (LVVDEGSLVSV; listed as Homo sapiens) [compound 167]”: the Peptide exchange result is “+++ (≥50 = +++)”. For “3 (RVIDDSLVVGV; listed as Homo sapiens) [compound 3]” the value was “+++ (≥50 = +++)”; for “94 (YLDEVAFML; listed as Homo sapiens) [compound 94]”, “+++ (≥50 = +++)”. “16 (SLADLSLLL; listed as Homo sapiens) [compound 16]”: the Peptide exchange result was “+++ (≥50 = +++)”. For “99 (TLFGIQLTEA; listed as Homo sapiens) [compound 99]” the value was “+++ (≥50 = +++)”; for “60 (YLFSQGLQGL; listed as Homo sapiens) [compound 60]”, “+++ (≥50 = +++)”. As to “21 (YLMDDFSSL; listed as Homo sapiens) [compound 21]”, the Peptide exchange result is “+++ (≥50 = +++)”. As for “269 (GLLDCPIFL; listed as Homo sapiens) [compound 269]”, the entry is “++++ (≥75% = ++++)”; as for “134 (SLYKSFLQL; listed as Homo sapiens) [compound 134]”, “++ (≥20% = ++)”; as for “286 (FLTEMVHFI; listed as Homo sapiens) [compound 286]”, “+++ (≥50 = +++)”. As for “80 (VLTGQVHEL; listed as Homo sapiens) [compound 80]”, the Peptide exchange result is listed as “+++ (≥50 = +++)”. “233 (SLFESLEYL; listed as Homo sapiens) [compound 233]”: the Peptide exchange entry is listed as “+++ (≥50 = +++)”. Turning to “227 (SEMEELPSV; listed as Homo sapiens) [compound 227]”, the Peptide exchange entry was “+ (≥10% = +)”. As to “169 (ALADLSVAV; listed as Homo sapiens) [compound 169]”, the Peptide exchange result was “+++ (≥50 = +++)”. “273 (SLNKQIETV; listed as Homo sapiens) [compound 273]”: the Peptide exchange result is reported as “++ (≥20% = ++)”. For the substance “7 (ALLQALMEL; listed as Homo sapiens) [compound 7]”, the Peptide exchange result is listed as “+++ (≥50 = +++)”. With “44 (AVFNLVHVV; listed as Homo sapiens) [compound 44]”, the Peptide exchange result is on record as “+++ (≥50 = +++)”.

On to “14 (YTFSGDVQL; listed as Homo sapiens) [compound 14]”, for which the Peptide exchange result is recorded as “+++ (≥50 = +++)”.

For “53 (AQHLSTLLL; listed as Homo sapiens) [compound 53]”, the Peptide exchange result is “+ (≥10% = +)”. As for “27 (GLLGKVTSV; listed as Homo sapiens) [compound 27]”, the entry is “+++ (≥50 = +++)”. For the substance “195 (VIIQNLPAL; listed as Homo sapiens) [compound 195]”, the Peptide exchange result is “+++ (≥50 = +++)”.

As for “63 (KLLPMVIQL; listed as Homo sapiens) [compound 63]”, the Peptide exchange result is listed as “+++ (≥50 = +++)”.

In the case of “87 (KLLSLLEEA; listed as Homo sapiens) [compound 87]”, the Peptide exchange entry is “+++ (≥50 = +++)”.
